Experimental data from patent US20200399314A1 (MEDIKINE, published 2020).
Bridge positions count the residues as written; N and C are the ends. Ends that are not written are not given here.

T1: human IL-2Rα subunit (human, UniProt P01589 22-213, limits assumed)
T1 construct: also called CD25
T1 sequence (looked up): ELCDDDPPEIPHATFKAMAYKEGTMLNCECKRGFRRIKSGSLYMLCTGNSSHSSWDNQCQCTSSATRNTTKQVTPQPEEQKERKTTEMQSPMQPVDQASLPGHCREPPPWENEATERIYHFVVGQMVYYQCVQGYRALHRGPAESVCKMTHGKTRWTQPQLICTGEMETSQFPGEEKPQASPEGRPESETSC


target: T1, human IL-2Rα subunit

Row | Binder | IC50
1 | VRCLYDSITRTCTF [SEQ ID NO 83] | < 100 µM
2 | TRCTVIGPPWSCRF [SEQ ID NO 81] | < 100 µM
3 | FWECVYSPGSRGCRMV (disulfide 4-13 (inferred)) [SEQ ID NO 93] | < 100 µM
4 | YVTCRWGYGCTR [SEQ ID NO 42] | < 100 µM
5 | RQCNCLSPGELVNCQQ [SEQ ID NO 307] | < 100 µM
6 | HVICSVNGGCRG [SEQ ID NO 44] | < 100 µM
7 | VRFCRSGPGWVSCGTQ [SEQ ID NO 102] | < 100 µM
8 | EWECWFLPGRRGCTLI [SEQ ID NO 116] | < 100 µM
9 | LSVCSCPPGQLYCMVE (disulfide (positions not given here); also: disulfide between two of the three Cys, which not given here) [SEQ ID NO 304] | < 100 µM
10 | QWSCVFSPGVRGCKLV (disulfide 4-13 (inferred)) [SEQ ID NO 97] | < 100 µM
11 | IKCRVLEAGTPCVF (disulfide 3-12 (inferred)) [SEQ ID NO 73] | < 100 µM
12 | MVSCTDLGCVVVGGG [SEQ ID NO 302] | < 100 µM
13 | SWECVYMPGHQGCRLF [SEQ ID NO 101] | < 100 µM
14 | IRCRYEKQSGICLF [SEQ ID NO 74] | < 100 µM
15 | VFCIGYGAAQSCHS [SEQ ID NO 82] | < 100 µM
16 | DWHCLFLPGHRGCTLF (disulfide 4-13 (inferred)) [SEQ ID NO 117] | < 100 µM
17 | DWECLFLPGRRGCTLF (disulfide 4-13 (inferred)) [SEQ ID NO 118] | < 100 µM
18 | DWECLFLPGRRGCLLF [SEQ ID NO 110] | < 100 µM
19 | DWECIFLPGRRGCTLF (disulfide 4-13 (inferred)) [SEQ ID NO 114] | < 100 µM
20 | RSCNRYGIWGHCDT [SEQ ID NO 72] | < 100 µM
21 | GSRCYWDPGREVCIFK [SEQ ID NO 91] | < 100 µM
22 | KYWCLRSEPDACFAT (disulfide 4-12 (inferred)) [SEQ ID NO 51] | < 100 µM
23 | WAYDWSCFRRRL [SEQ ID NO 3] | < 100 µM

Row | Binder | IC50
24 | AWECLFLPGHRGCSLF [SEQ ID NO 112] | < 100 µM
25 | VSCRFRPDLGFCIF [SEQ ID NO 85] | < 100 µM
26 | FIPWDEYFKQVL [SEQ ID NO 9] | < 100 µM
27 | TWDCLFLPGRRGCTLM [SEQ ID NO 120] | < 100 µM
28 | KWICRLVPGNGACHSF [SEQ ID NO 95] | < 100 µM
29 | VRLCRVGPGYESCPAN [SEQ ID NO 103] | < 100 µM
30 | RFICRIQPGREGCWSL [SEQ ID NO 98] | < 100 µM
31 | PWVCEHYPGRRGCVLM (disulfide 4-13 (inferred)) [SEQ ID NO 96] | < 100 µM
32 | ETPCDLHPGHWSCSMV [SEQ ID NO 127] | < 100 µM
33 | GFRCTYDPGTHSCWSI [SEQ ID NO 94] | < 100 µM
34 | KLFCLRSGDRACWVV (disulfide 4-12 (inferred)) [SEQ ID NO 60] | < 100 µM
35 | EWECLFLPGRKGCTLF [SEQ ID NO 113] | < 100 µM
36 | STWCCLHPGVGECQAV [SEQ ID NO 305] | < 100 µM
37 | EWECRFLPGRRGCSLF [SEQ ID NO 92] | < 100 µM
38 | NWECIFSPGRRGCSLT [SEQ ID NO 121] | < 100 µM
39 | FVEWQAYFSQMM [SEQ ID NO 6] | < 100 µM
40 | VSCKIDRRSGSCLF (disulfide 3-12 (inferred)) [SEQ ID NO 84] | < 100 µM
41 | NHCTMDWRLGACIF [SEQ ID NO 77] | < 100 µM
42 | YWECVFMPGHRGCSLI [SEQ ID NO 119] | < 100 µM
43 | FLHWPVYFCQVM [SEQ ID NO 4] | < 100 µM
44 | SGCRLSLLDGHCYF [SEQ ID NO 78] | < 100 µM
45 | VYECLFMPGRKGCFGM [SEQ ID NO 115] | < 100 µM
46 | YVLCSNRNGCRP [SEQ ID NO 41] | < 100 µM

Row | Binder | IC50
47 | FVPWDVYFSQIL [SEQ ID NO 10] | < 100 µM
48 | EWECLFMPGRRGCLLM (disulfide 4-13 (inferred)) [SEQ ID NO 111] | < 100 µM
49 | DRCDTRTWGYYCWI [SEQ ID NO 86] | < 100 µM
50 | WVICSALGCKAW [SEQ ID NO 36] | < 100 µM
51 | VRMCYVAPGYVSCPRM [SEQ ID NO 104] | < 100 µM
52 | WVACSWDHGCRS (disulfide 4-10 (inferred)) [SEQ ID NO 43] | < 100 µM
53 | SRCVMSLQLGACIF [SEQ ID NO 80] | < 100 µM
54 | HEICCGPPGCHSCSVT [SEQ ID NO 303] | < 100 µM
55 | FLPWPVYFSQVL [SEQ ID NO 5] | < 100 µM
56 | RWECIYIPGRKGCTLQ [SEQ ID NO 99] | < 100 µM
57 | RVYCLASEPNSCWST [SEQ ID NO 52] | < 100 µM
58 | VTQCFDGPGSFRCCYQ [SEQ ID NO 306] | < 100 µM
59 | AGWCKLNPGTQVCSFY (disulfide 4-13 (inferred)) [SEQ ID NO 126] | < 100 µM
60 | MRCILSPSREHCLF [SEQ ID NO 76] | < 100 µM
61 | FIPWDEYFAQLL [SEQ ID NO 8] | < 100 µM
62 | RRFCLRSEPAACWFV [SEQ ID NO 67] | < 100 µM
63 | LRCRLDTRDGTCRF [SEQ ID NO 75] | < 100 µM
64 | EQFCLVSDPMACWSL (disulfide 4-12 (inferred)) [SEQ ID NO 50] | < 100 µM
65 | SKCVYDYNFGTCIF [SEQ ID NO 79] | < 100 µM
66 | SLNCKTRPGLRWCTWT [SEQ ID NO 100] | < 100 µM
67 | TKLCLKSEPQACWSM [SEQ ID NO 53] | < 100 µM
68 | NWECIFSPGRRGCSLT [SEQ ID NO 109] | < 100 µM
